From patent US20200165344A1 (DRAGONFLY THERAPEUTICS, published 2020)
Residue numbers refer to the chain shown, from its start. One block for each binder: values may come before it.

Assays:
[1] = target: T1, FLT3 expressed on human AML cell lines Molm-13 and EOL-1 (human, UniProt P36888 27-993); assay: flow cytometry on Molm-13 and EOL-1 cells
T1 construct: the FLT3 in the assay is that carried by the cell lines themselves; also called FMS-like tyrosine kinase-3
Procedure: Human AML cell lines (Molm-13 and EOL-1) expressing FLT3 were used to assay the binding of FLT3-targeting TriNKETs to the tumor-associated antigen. TriNKETs were incubated with the cells, and the binding was detected using fluorophore-conjugated anti-human IgG secondary antibodies. Cells were analyzed by flow cytometry and mean fluorescence intensity (MFI) was normalized to secondary antibody controls to obtain fold over background (FOB) values.

[2] = target: T2, recombinant human NKG2D-Fc (human, UniProt P26718 73-216); assay: ELISA, NKG2D-Fc coated
T2 construct: extracellular domain; also called human NKG2D-Fc fusion protein; NKG2D-Fc-biotin; not shown: human IgG1 Fc domain
T2 sequence (looked up): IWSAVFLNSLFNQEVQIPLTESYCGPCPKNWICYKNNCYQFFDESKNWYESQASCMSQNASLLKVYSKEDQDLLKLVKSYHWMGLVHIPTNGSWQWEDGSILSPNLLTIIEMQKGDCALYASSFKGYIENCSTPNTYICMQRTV

[3] = target: T3, recombinant cynomolgus NKG2D-Fc (cynomolgus; human, UniProt P61252 73-216); assay: ELISA, NKG2D-Fc coated
T3 construct: extracellular domain; also called cynomolgus NKG2D-Fc fusion protein; not shown: human IgG1 Fc domain
T3 sequence (looked up): T2 sequence (looked up) with D43N, T133I

[4] = target: T4, recombinant mouse NKG2D-Fc (mouse; human, UniProt O54709 90-232); assay: ELISA, NKG2D-Fc coated
T4 construct: extracellular domain; also called mouse NKG2D-Fc fusion protein; Mouse NKG2D-Fc-biotin; not shown: human IgG1 Fc domain
T4 sequence (looked up): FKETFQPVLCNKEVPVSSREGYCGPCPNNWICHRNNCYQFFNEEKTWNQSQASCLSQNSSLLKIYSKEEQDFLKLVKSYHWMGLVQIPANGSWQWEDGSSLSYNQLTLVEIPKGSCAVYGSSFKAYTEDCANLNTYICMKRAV

- binding result [2]: binds
- binding result [3]: binds
- binding result [4]: binds
B13: ADI-29404 (antibody, V domains shown)
VH: QVQLQQWGAGLLKPSETLSLTCAVYGGSFSGYYWSWIRQPPGKGLEWIGEIDHSGSTNYNPSLKSRVTISVDTSKNQFSLKLSSVTAADTAVYYCARARGPWSFDPWGQGTLVTVSS
VL: DIQMTQSPSTLSASVGDRVTITCRASQSISSWLAWYQQKPGKAPKLLIYKASSLESGVPSRFSGSGSGTEFTLTISSLQPDDFATYYCEQYDSYPTFGGGTKVEIK
notes: also called F04

- binding result [2]: binds
- binding result [3]: binds
- binding result [4]: binds
B14: ADI-27740 (antibody, V domains shown)
VH: B13 VH
VL: B13 VL with S30G, E89Q, D92H, Y94F, P95Y
notes: also called A40

- binding result [2]: binds
- binding result [3]: binds
- binding result [4]: binds
B15: ADI-29405 (antibody, V domains shown)
VH: B13 VH
VL: B13 VL with E89Q, D92G, Y94F

- binding result [2]: binds
- binding result [3]: binds
- binding result [4]: binds
B16: ADI-29426 (antibody, V domains shown)
VH: B13 VH
VL: B13 VL with S30G, E89Q, D92H, Y94F

- binding result [2]: binds
- binding result [3]: binds
- binding result [4]: binds
B17: ADI-29447 (antibody, V domains shown)
VH: B13 VH
VL: B13 VL with E89Q, S93T, Y94F, P95I
notes: also called F47

- binding result [2]: binds
- binding result [3]: binds
- binding result [4]: binds
B18: ADI-29401 (antibody, V domains shown)
VH: B13 VH
VL: B13 VL with S30G, E89Q, S93I

- binding result [2]: binds
- binding result [3]: binds
- binding result [4]: binds
B19: ADI-29419 (antibody, V domains shown)
VH: B13 VH
VL: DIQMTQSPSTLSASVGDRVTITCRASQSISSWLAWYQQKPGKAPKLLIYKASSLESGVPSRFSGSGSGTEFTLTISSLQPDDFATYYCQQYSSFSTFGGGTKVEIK

- binding result [2]: binds
- binding result [3]: binds
- binding result [4]: binds
B20: ADI-29421 (antibody, V domains shown)
VH: B13 VH
VL: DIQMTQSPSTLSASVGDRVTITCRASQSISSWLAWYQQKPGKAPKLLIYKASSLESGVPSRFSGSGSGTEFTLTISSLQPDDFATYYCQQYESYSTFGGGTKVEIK

- binding result [2]: binds
- binding result [3]: binds
- binding result [4]: binds
B21: ADI-28226 (antibody, V domains shown)
VH: B13 VH
VL: DIQMTQSPSTLSASVGDRVTITCRASQSISSWLAWYQQKPGKAPKLLIYKASSLESGVPSRFSGSGSGTEFTLTISSLQPDDFATYYCQQYGSFPITFGGGTKVEIK
notes: also called C26

- binding result [2]: binds
- binding result [3]: binds
- binding result [4]: binds
B22: ADI-27743 (antibody, V domains shown)
VH: B13 VH
VL: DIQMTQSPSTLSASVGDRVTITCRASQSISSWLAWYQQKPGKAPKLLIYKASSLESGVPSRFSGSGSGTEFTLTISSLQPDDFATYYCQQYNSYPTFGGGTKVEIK

- binding result [2]: binds
- binding result [3]: binds
- binding result [4]: binds
B23: ADI-29378 (antibody, V domains shown)
VH: QVQLVQSGAEVKKPGASVKVSCKASGYTFTSYYMHWVRQAPGQGLEWMGIINPSGGSTSYAQKFQGRVTMTRDTSTSTVYMELSSLRSEDTAVYYCAREGAGFAYGMDYYYMDVWGKGTTVTVSS
VL: EIVLTQSPATLSLSPGERATLSCRASQSVSSYLAWYQQKPGQAPRLLIYDASNRATGIPARFSGSGSGTDFTLTISSLEPEDFAVYYCQQSDNWPFTFGGGTKVEIK
notes: also called E78

- binding result [2]: binds
- binding result [3]: binds
- binding result [4]: binds
B24: ADI-27727 (antibody, V domains shown)
VH: QVQLVQSGAEVKKPGSSVKVSCKASGGTFSSYAISWVRQAPGQGLEWMGGIIPIFGTANYAQKFQGRVTITADESTSTAYMELSSLRSEDTAVYYCARGDSSIRHAYYYYGMDVWGQGTTVTVSS
VL: not shown

The remaining lines, values behind:

B1: A49-TriNKET-FLT3-IMCEB10 (bispecific antibody, V domains shown)
VH 1: EVQLVESGGGLVKPGGSLRLSCAASGFTFSSYSMNWVRQAPGKGLEWVSSISSSSSYIYYADSVKGRFTISRDNAKNSLYLQMNSLRAEDTAVYYCARGAPMGAAAGWFDPWGQGTLVTVSS
VL 1: B21 VL with T10S, L11V, S28G, K50A, E55Q, E70D, D81E, Y91G, G92V, I96R
VH 2: EVQLVQSGAEVKKPGASVKVSCKASGYTFTSYYMHWVRQAPGQGLEWMGIINPSGGSTSYAQKFQGRVTMTRDTSTSTVYMELSSLRSEDTAVYYCARGVGAHDAFDIWGQGTTVTVSSA
VL 2: DVVMTQSPLSLPVTPGEPASISCRSSQSLLHSNGNNYLDWYLQKPGQSPQLLIYLGSNRASGVPDRFSGSGSDTDFTLQISRVEAEDVGVYYCMQGTHPAISFGQGTRLEIKR
notes: also called A49-TriNKET-IMCEB10
- binding result [1]: binds

B2: A49-TriNKET-FLT3-4G8 (bispecific antibody, V domains shown)
VH 1: B1 VH 1
VL 1: B21 VL with T10S, L11V, S28G, K50A, E55Q, E70D, D81E, Y91G, G92V, I96R
VH 2: QVQLQQPGAELVKPGASLKLSCKSSGYTFTSYWMHWVRQRPGHGLEWIGEIDPSDSYKDYNQKFKDKATLTVDRSSNTAYMHLSSLTSDDSAVYYCARAITTTPFDFWGQGTTLTVSS
VL 2: DIVLTQSPATLSVTPGDSVSLSCRASQSISNNLHWYQQKSHESPRLLIKYASQSISGIPSRFSGSGSGTDFTLSINSVETEDFGVYFCQQSNTWPYTFGGGTKLEIKR
notes: also called A49-TriNKET-4G8
- binding result [1]: binds

B3: ADI-27749 (antibody, V domains shown)
VH: B1 VH 1
VL: B21 VL with T10S, L11V, S28G, K50A, E55Q, E70D, D81E, Y91G, G92V, I96R
notes: also called A49
- binding result [2]: binds
- binding result [3]: binds
- binding result [4]: binds

B4: ADI-27705 (antibody, V domains shown)
VH: B13 VH
VL: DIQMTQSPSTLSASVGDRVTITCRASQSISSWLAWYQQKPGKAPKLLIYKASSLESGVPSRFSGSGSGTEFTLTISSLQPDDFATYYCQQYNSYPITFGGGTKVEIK
- binding result [2]: binds
- binding result [3]: binds
- binding result [4]: binds

B5: C26-TriNKET-FLT3-4G8 (bispecific antibody, V domains shown)
VH 1: B13 VH
VL 1: B21 VL
VH 2: B2 VH 2
VL 2: B2 VL 2
notes: also called C26-TriNKET-4G8
- binding result [1]: binds

B6: ADI-29403 (antibody, V domains shown)
VH: B13 VH
VL: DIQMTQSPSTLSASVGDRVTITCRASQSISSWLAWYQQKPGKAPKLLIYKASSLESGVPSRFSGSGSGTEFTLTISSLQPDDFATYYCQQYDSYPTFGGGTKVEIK
- binding result [2]: binds
- binding result [3]: binds
- binding result [4]: binds

B7: ADI-29429 (antibody, V domains shown)
VH: B13 VH
VL: B21 VL with S30G, G92E, S93L, F94Y, P95S, I96Y
- binding result [2]: binds
- binding result [3]: binds
- binding result [4]: binds

B8: ADI-29407 (antibody, V domains shown)
VH: B13 VH
VL: B13 VL with E89Q, D92Q, Y94F
- binding result [2]: binds
- binding result [3]: binds
- binding result [4]: binds

B9: ADI-29425 (antibody, V domains shown)
VH: B13 VH
VL: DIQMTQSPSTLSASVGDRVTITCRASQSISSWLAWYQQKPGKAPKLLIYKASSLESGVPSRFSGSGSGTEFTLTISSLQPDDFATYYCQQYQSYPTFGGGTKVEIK
- binding result [2]: binds
- binding result [3]: binds
- binding result [4]: binds

B10: ADI-29424 (antibody, V domains shown)
VH: B13 VH
VL: B13 VL with E89Q, Y94F, P95I
- binding result [2]: binds
- binding result [3]: binds
- binding result [4]: binds

B11: ADI-29399 (antibody, V domains shown)
VH: B13 VH
VL: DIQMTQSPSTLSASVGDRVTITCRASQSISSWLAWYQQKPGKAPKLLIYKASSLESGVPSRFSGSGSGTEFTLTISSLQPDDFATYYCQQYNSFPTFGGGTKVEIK
- binding result [2]: binds
- binding result [3]: binds
- binding result [4]: binds

B12: ADI-27741 (antibody, V domains shown)
VH: B13 VH
VL: B13 VL with S30G, E89Q, Y91S, D92N, P95Y
- binding result [2]: binds
- binding result [3]: binds
- binding result [4]: binds
